Here are results for 13 compounds from paper PMC5672839, “A novel peptide stapling strategy enables the retention of ring-closing amino acid side chains for the Wnt/β-catenin signalling pathway” (Chemical Science, 2017).

A short description of one series: circular dichroism. The settings on record: 10 mM phosphate buffer (captions say PBS); pH 7.4; 25 °C; 50 uM. For orientation: Circular dichroism is widely used to follow secondary structure.
The subject of another series is HEK 293T/17 cells. The experiment in a line: Cell permeability of FITC-labelled peptides by confocal microscopy. The format is cell-based. The settings on record: FITC–β-Ala–peptide 40 μM (supplement: 10 µM), 16 h, washed with PBS twice, fixed, confocal fluorescence microscopy. The source says:
(§1) Con = non-specific control. […] Scale bar: 50 μm.
We then assessed the cell permeability of the peptides by conjugating fluorescein isothiocyanate (FITC) to Axin (469–482), WNT-3a and WNT-3c (Fig. 3d). […] To explore the detailed binding mode of WNT-3a against β-catenin, we conducted a Z-dock of the WNT-3a–β-catenin complex to predict structural models of the protein–protein complexes.[27] […] Owing to an introduction of the stapling group, Met-481 is closer to the Trp-338 of β-catenin, and thus forms a stronger interaction with that residue. In addition, a stronger salt bridge between the side chain carboxyl group of Asp-474 coordinated with the amino group of β-catenin Lys-292 and a more efficient hydrogen bond between the side chain of His-476 and β-catenin Asp-299 are constructed because of a closer distance geometrically. It is conceivable that these changes enhanced the conformational stability of WNT-3a in its bound state, thereby contributing to the improved binding activity.
(§2) The CD spectra were obtained with
(§3) The measurement parameters
(§4) background subtraction. The curves were smoothed using standard parameters. In addition,
(§5) Figure S3. CD spectra of all peptides.
(§6) concentration of 50 μM. The percent helicity was calculated based on the [θ] 222 value.

The target of a further series is α-chymotrypsin (Bos taurus, UniProt P00766). The experiment in a line: Proteolytic stability towards α-chymotrypsin. Conditions: α-chymotrypsin 5 ng μL^–1 (supplement: 0.5 ng/µL) in 50 mM PBS pH 7.4 with 2 mM CaCl2, peptide 0.1 mM final, room temperature, 1 h, analytical HPLC, duplicate independent experiments.
Series [1] can be described thus: Circular dichroism (CD) analysis, percent helicity from [θ]222. The format is physicochemical. The settings on record: peptide 50 μM in phosphate buffer (10 mM, pH 7.4), 25 °C, 1 mm cuvette, calculated from [θ]222. How it is done: as §1, §2, §3, §4, §5, §6
Series [2] concerns Wnt/β-catenin dependent transcriptional activity. Description: Topflash-luciferase reporter, Wnt3a-induced expression. The format is cell-based. The settings on record: Wnt3a conditioned medium, peptide 40 μM, 12 h; for Wnt3a-induced Topflash reporter expression, comparison in words: HEK293T cells transfected with Topflash-luciferase. The source says:
We next explored the effects of these peptides on Wnt/β-catenin dependent transcriptional activity. The Topflash reporter, in which firefly luciferase is transcriptionally activated by β-catenin, was employed. […] Con = non-specific control. […] Scale bar: 50 μm.
(A reporter such as luciferase makes a cellular process visible.)

The nature of a further series: in vitro. Conditions: isolated enzyme chymotrypsin, pH 7.4.

Starred links: 1 amine or outer side, 2 acyl side, 3 side chain; linkers in the order of their positions; H or OH if unused. Positions of bridges follow the written chain, without caps; N, C: chain ends. Non-standard residues stand in square brackets, D forms with d. Residues, ends and D or L forms follow the SMILES beside them. *: point of attachment. FITC = O=C1OC2(c3ccc(O)cc3Oc3cc(O)ccc32)c2ccc(NC(=S)*)cc21; X2 = CC(C)C[C@](CCCC=[*:3])(N[*:1])C(=O)[*:2]; X6 = NCCCC[C@](CCCC=[*:3])(N[*:1])C(=O)[*:2]; X1 = CSCC[C@](CCCC=[*:3])(N[*:1])C(=O)[*:2]; X3 = O=C([C@@](CO)(CCCC=[*:3])N[*:1])[*:2]; X5 = C=CCCC[C@@](CC(C)C)(N[*:1])C(=O)[*:2]; X4 = C=CCCC[C@@](CCSC)(N[*:1])C(=O)[*:2]; R5 = C=CCCC[C@@](C)(N)C(=O)O; S5 = C=CCCC[C@](C)(N)C(=O)O; βAla = NCCC(=O)O

Description for in vitro: (§7) (c) Proteolytic stability of the peptides (Axin (469–482) vs. WNT-3a) in the α-chymotrypsin solution (5 ng μL^–1 in 50 mM PBS buffer, pH = 7.4) at a final concentration of 0.1 mM. […] The percent of residual peptide was monitored by analytical HPLC.
(§8) To test the protease stability of the stapled peptides with the retention of the side chains, we measured their susceptibility towards α-chymotrypsin-mediated degradation at room temperature in pH 7.4 PBS buffer containing 2 mM of CaCl2 as monitored by HPLC. α-Chymotrypsin is a protease that predominantly cleaves at the carboxyl side of positively charged amino acids such as methionine and leucine.
(§9) The Axin(469-482) and WNT-3a were dissolved in PBS buffer solutions (50 mM, pH =
(§10) 7.4) to a final concentration of 1mM, respectively. α-Chymotrypsin was dissolved in PBS
(§11) buffer (50 mM, containing 2 mM of CaCl2, pH = 7.4) to a final concentration of 0.5 ng/µL.
(§12) Then the peptide solutions (100 µL) were incubated with α-Chymotrypsin solution (1 mL) at
(§13) room temperature. 100 µL of digestion mixture was taken at the 0, 5, 10, 20, 30, 40, and 60
Description for α-chymotrypsin: as §7, §8, §9, §10, §11, §12, §13

Turning to `C=CCCC[C@@](CCSC)(NC(=O)[C@@H](NC(=O)[C@H](CCCNC(=N)N)NC(=O)[C@](C)(CCCC=C)NC(=O)[C@@H](NC(=O)[C@H](Cc1c[nH]cn1)NC(=O)[C@H](CCC(=O)O)NC(=O)[C@H](CC(=O)O)NC(=O)[C@H](CC(C)C)NC(=O)[C@@H](NC(=O)[C@H](CO)NC(=O)[C@H](CCC(=O)O)NC(=O)[C@@H]1CCCN1C(C)=O)[C@@H](C)CC)C(C)C)C(C)C)C(=O)N[C@@H](CCCCN)C(N)=O` (Ac-PESILDEHV[S5]RV[X4]K-NH2), in “circular dichroism”, the helicity amounted to 49.9%. Consider `CC[C@H](C)[C@H](NC(=O)[C@H](CO)NC(=O)[C@H](CCC(=O)O)NC(=O)[C@@H]1CCCN1C(C)=O)C(=O)N[C@@H](CC(C)C)C(=O)N[C@@H](CC(=O)O)C(=O)N[C@@H](CCC(=O)O)C(=O)N[C@@H](Cc1c[nH]cn1)C(=O)N[C@]1(C)CCCC=CCCC[C@](C)(C(=O)N[C@@H](CCCCN)C(N)=O)NC(=O)[C@H](C(C)C)NC(=O)[C@H](CCCNC(=N)N)NC(=O)[C@H](CCC(N)=O)NC1=O` (Ac-PESILDEH[R5]QRV[R5]K-NH2; staple 9-13), for which, in “circular dichroism”, the helicity was 35.4%.

Turning to `CC[C@H](C)[C@H](NC(=O)[C@H](CO)NC(=O)[C@H](CCC(=O)O)NC(=O)[C@@H]1CCCN1C(C)=O)C(=O)N[C@@H](CC(C)C)C(=O)N[C@@H](CC(=O)O)C(=O)N[C@@H](CCC(=O)O)C(=O)N[C@@H](Cc1c[nH]cn1)C(=O)N[C@@]1(C)CCCC=CCCC[C@@](C)(C(=O)N[C@@H](CCCCN)C(N)=O)NC(=O)[C@H](C(C)C)NC(=O)[C@H](CCCNC(=N)N)NC(=O)[C@H](CCC(N)=O)NC1=O` (Ac-PESILDEH[S5]QRV[S5]K-NH2; staple 9-13), the helicity in “circular dichroism” was 64.7%. On the same count and under the same terms, with `CC[C@H](C)[C@H](NC(=O)[C@H](CO)NC(=O)[C@H](CCC(=O)O)NC(=O)[C@@H]1CCCN1C(C)=O)C(=O)N[C@]1(C)CCCC=CCCC[C@@](C)(C(=O)N[C@H](C(=O)N[C@@H](CCC(N)=O)C(=O)N[C@@H](CCCNC(=N)N)C(=O)N[C@H](C(=O)N[C@@H](CCSC)C(=O)N[C@@H](CCCCN)C(N)=O)C(C)C)C(C)C)NC(=O)[C@H](CCC(=O)O)NC(=O)[C@H](CC(=O)O)NC1=O` (Ac-PESI[R5]DE[S5]VQRVMK-NH2; staple 5-8) the figure was 36.8%; with `C=CCCC[C@@](CC(C)C)(NC(=O)[C@@H](NC(=O)[C@H](CO)NC(=O)[C@H](CCC(=O)O)NC(=O)[C@@H]1CCCN1C(C)=O)[C@@H](C)CC)C(=O)N[C@@H](CC(=O)O)C(=O)N[C@@H](CCC(=O)O)C(=O)N[C@@H](Cc1c[nH]cn1)C(=O)N[C@](C)(CCCC=C)C(=O)N[C@@H](CCC(N)=O)C(=O)N[C@@H](CCCNC(=N)N)C(=O)N[C@H](C(=O)N[C@@H](CCSC)C(=O)N[C@@H](CCCCN)C(N)=O)C(C)C` (Ac-PESI[X5]DEH[R5]QRVMK-NH2), 21.6%; with `CC[C@H](C)[C@@H]1NC(=O)[C@](C)(NC(=O)[C@H](CCC(=O)O)NC(=O)[C@@H]2CCCN2C(C)=O)CCCC=CCCC[C@@](C)(C(=O)N[C@@H](CCC(=O)O)C(=O)N[C@@H](Cc2c[nH]cn2)C(=O)N[C@H](C(=O)N[C@@H](CCC(N)=O)C(=O)N[C@@H](CCCNC(=N)N)C(=O)N[C@H](C(=O)N[C@@H](CCSC)C(=O)N[C@@H](CCCCN)C(N)=O)C(C)C)C(C)C)NC(=O)[C@H](CC(C)C)NC1=O` (Ac-PE[R5]IL[S5]EHVQRVMK-NH2; staple 3-6), 40%. Same read-out and setting: the result for `CC[C@H](C)[C@@H]1NC(=O)[C@](CO)(NC(=O)[C@H](CCC(=O)O)NC(=O)[C@@H]2CCCN2C(C)=O)CCCC=CCCC[C@](C)(C(=O)N[C@@H](Cc2c[nH]cn2)C(=O)N[C@H](C(=O)N[C@@H](CCC(N)=O)C(=O)N[C@@H](CCCNC(=N)N)C(=O)N[C@H](C(=O)N[C@@H](CCSC)C(=O)N[C@@H](CCCCN)C(N)=O)C(C)C)C(C)C)NC(=O)[C@H](CC(=O)O)NC(=O)[C@H](CC(C)C)NC1=O` (Ac-PE[X3]ILD[R5]HVQRVMK-NH2; staple 3-7) reads 24.8%; that for `CC[C@H](C)[C@@H]1NC(=O)[C@](CO)(NC(=O)[C@H](CCC(=O)O)NC(=O)[C@@H]2CCCN2C(C)=O)CCCC=CCCC[C@@](C)(C(=O)N[C@@H](CCC(=O)O)C(=O)N[C@@H](Cc2c[nH]cn2)C(=O)N[C@H](C(=O)N[C@@H](CCC(N)=O)C(=O)N[C@@H](CCCNC(=N)N)C(=O)N[C@H](C(=O)N[C@@H](CCSC)C(=O)N[C@@H](CCCCN)C(N)=O)C(C)C)C(C)C)NC(=O)[C@H](CC(C)C)NC1=O` (Ac-PE[X3]IL[S5]EHVQRVMK-NH2; staple 3-6), 51.3%. With `CC[C@H](C)[C@H](NC(=O)[C@H](CO)NC(=O)[C@H](CCC(=O)O)NC(=O)[C@@H]1CCCN1C(=O)CCNC(=S)Nc1ccc2c(c1)C(=O)OC21c2ccc(O)cc2Oc2cc(O)ccc21)C(=O)N[C@@H](CC(C)C)C(=O)N[C@@H](CC(=O)O)C(=O)N[C@@H](CCC(=O)O)C(=O)N[C@@H](Cc1c[nH]cn1)C(=O)N[C@H](C(=O)N[C@@H](CCC(N)=O)C(=O)N[C@@H](CCCNC(=N)N)C(=O)N[C@H](C(=O)N[C@@H](CCSC)C(=O)N[C@@H](CCCCN)C(N)=O)C(C)C)C(C)C` [FITC–β-Ala–Axin (469–482)] ({FITC-βAla}-PESILDEHVQRVMK-NH2), the “cell permeability” value in the series on HEK 293T/17 cells is “also penetrated the cell membrane”.

In the series “circular dichroism”, `CC[C@H](C)[C@H](NC(=O)[C@H](CO)NC(=O)[C@H](CCC(=O)O)NC(=O)[C@@H]1CCCN1C(C)=O)C(=O)N[C@@H](CC(C)C)C(=O)N[C@@H](CC(=O)O)C(=O)N[C@@H](CCC(=O)O)C(=O)N[C@@H](Cc1c[nH]cn1)C(=O)N[C@]1(C)CCCC=CCCC[C@](CCSC)(C(=O)N[C@@H](CCCCN)C(N)=O)NC(=O)[C@H](C(C)C)NC(=O)[C@H](CCCNC(=N)N)NC(=O)[C@H](CCC(N)=O)NC1=O` [WNT-3a] (Ac-PESILDEH[R5]QRV[X1]K-NH2; staple 9-13) had a helicity of 42.3%. The “degradation by α-chymotrypsin” value at α-chymotrypsin is “completely stable and no degradation was observed even after 1 h”. In “circular dichroism”, `CC[C@H](C)[C@H](NC(=O)[C@H](CO)NC(=O)[C@H](CCC(=O)O)NC(=O)[C@@H]1CCCN1C(C)=O)C(=O)N[C@]1(CC(C)C)CCCC=CCCC[C@@](C)(C(=O)N[C@H](C(=O)N[C@@H](CCC(N)=O)C(=O)N[C@@H](CCCNC(=N)N)C(=O)N[C@H](C(=O)N[C@@H](CCSC)C(=O)N[C@@H](CCCCN)C(N)=O)C(C)C)C(C)C)NC(=O)[C@H](CCC(=O)O)NC(=O)[C@H](CC(=O)O)NC1=O` [WNT-6a] (Ac-PESI[X2]DE[S5]VQRVMK-NH2; staple 5-8) had a helicity of 70.9%. Also, the α-Helicity in series [1] is given as 70.87%. The “Wnt3a-induced Topflash reporter expression, comparison in words” value in series [2] was “enhanced the Wnt3a-induced reporter expression more effectively than Axin (469–482)”. Moreover, the “fold enhancement of Wnt3a-induced reporter expression” value in series [2] (HEK293T cells, Topflash-luciferase, compared with Axin (469–482)) is “three-fold enhancement”.

For `CC[C@H](C)[C@H](NC(=O)[C@H](CO)NC(=O)[C@H](CCC(=O)O)NC(=O)[C@@H]1CCCN1C(C)=O)C(=O)N[C@@H](CC(C)C)C(=O)N[C@@H](CC(=O)O)C(=O)N[C@@H](CCC(=O)O)C(=O)N[C@@H](Cc1c[nH]cn1)C(=O)N[C@H](C(=O)N[C@@H](CCC(N)=O)C(=O)N[C@@]1(C)CCCC=CCCC[C@](CCCCN)(C(N)=O)NC(=O)[C@H](CCSC)NC(=O)[C@H](C(C)C)NC1=O)C(C)C` [WNT-8a] (Ac-PESILDEHVQ[S5]VM[X6]-NH2; staple 11-14), the “Wnt3a-induced Topflash reporter expression, comparison in words” value in series [2] is given as “enhanced the Wnt3a-induced reporter expression more effectively than Axin (469–482)”.

For Ac-PESILDEHVQRVMK-NH2 [Axin (469–482)], the helicity in the series “circular dichroism” came out at 19.6%. This compound also came in with a half-life at 0.1 mM in the series “in vitro” of 9 min.

Broadly, the half-life is the time in which the quantity being followed falls by half. Low readings indicate fast loss, high ones slow loss.
